We go through one protein from publication PMC11203732, “Structural Evaluation of a Nitroreductase Engineered for Improved Activation of the 5-Nitroimidazole PET Probe SN33623” (International Journal of Molecular Sciences, 2024).

The data set deals with the molecule itself. Nature of the data set: crystal structure; hanging-drop vapor diffusion at 18 °C; 7 mg/mL protein in 40 mM Tris-HCl pH 7.0, 200 mM NaCl; precipitant 0.2 M sodium chloride, 0.1 M sodium acetate pH 4.0, 33% PEG 8000; four molecules in the asymmetric unit; FMN bound.

B1: E. coli NfsB F70A/F108Y (enzyme)
chain: MDIISVALKRHSTKAFDASKKLTPEQAEQIKTLLQYSPSSTNSQPWHFIVASTEEGKARVAKSAAGNYVANERKMLDASHVVVFCAKTAMDDVWLKLVVDQEDADGRYATPEAKAANDKGRKFFADMHRKDLHDDAEWMAKQVYLNVGNFLLGVAALGLDAVPIEGFDAAILDAEFGLKEKGYTSLVVVPVGHHSVEDFNATLPKSRLPQNITLTEV
notes: Nitroreductase NfsB of Escherichia coli, 24 kDa subunit, with the substitutions F70A and F108Y; synthetic gene (Twist Bioscience) cloned into pET28a+; Homodimer with one FMN in each of two active sites at the dimer interface; also called mutNfsB; double-mutant F70A/F108Y
Regarding B1, the stoichiometry N (as a rule, the number of molecules, sites or subunits per partner or assembly) worked out at 2.
